Literature values in PMC3601010, “The complete N-terminal extension of heparin cofactor II is required for maximal effectiveness as a thrombin exosite 1 ligand” (BMC Biochemistry, 2013).

Biological target: T1, thrombin (Homo sapiens, UniProt P00734)
T1 construct: purchased Enzyme Research, South Bend, IN; host or cells: HCII 1-75 probe made in house in E. coli TOP10
Conditions: heparin, heparan sulfate, or dermatan sulfate; ref [7]-[11]
Description: Heparin cofactor II (HCII) is a 66 kDa plasma protein and member of the serpin superfamily of protease inhibitors (reviewed in [3]). It regulates the key coagulation protease thrombin by trapping it in a covalently-linked denaturation-resistant complex. Thrombin-complexed HCII is cleaved at its reactive center peptide bond, while thrombin in the inhibitory complex, by analogy to enzymes in other serpin-enzyme complexes, is conformationally inactivated by active site distortions that render it incapable of completing the catalytic cycle of a proteolytic enzyme. The r ...

B1: HCII: 66 kDa plasma protein and member of the serpin superfamily of protease inhibitors (protein, UniProt P05546 20-499, looked up)
Heparin cofactor 2: GSKGPLDQLEKGGETAQSADPQWEQLNNKNLSMPLLPADFHKENTVTNDWIPEGEEDDDYLDLEKIFSEDDDYIDIVDSLSVSPTDSDVSAGNILQLFHGKSRIQRLNILNAKFAFNLYRVLKDQVNTFDNIFIAPVGISTAMGMISLGLKGETHEQVHSILHFKDFVNASSKYEITTIHNLFRKLTHRLFRRNFGYTLRSVNDLYIQKQFPILLDFKTKVREYYFAEAQIADFSDPAFISKTNNHIMKLTKGLIKDALENIDPATQMMILNCIYFKGSWVNKFPVEMTHNHNFRLNEREVVKVSMMQTKGNFLAANDQELDCDILQLEYVGGISMLIVVPHKMSGMKTLEAQLTPRVVERWQKSMTNRTREVLLPKFKLEKNYNLVESLKLMGIRMLFDKNGNMAGISDQRIAIDLFKHQGTITVNEEGTQATTVTTVGFMPLSTQVRFTVDRPFLFLIYEHRTSCLLFMGRVANPSRS
modifications: plasma-derived
increase of thrombin inhibition rate by GAGs: three to four orders of magnitude
